Assay results: patent US6750197B1, “Activators of endothelial nitric oxide synthase” (Rensselaer Polytechnic Institute, priority 1996, dated 2004)

Key:
[1] = system: NOS; experiment: Radioligand binding of [125I]-calmodulin to NOS; parameters: scale not given here; conditions: ligand 1 nM, 15 minutes at 23° C., mean ± SEM
Experimental: (§1) NOS activity measurements were performed using recombinant rat NNOS (purified from overexpressing HEK293 cells), recombinant bovine ENOS (purified from overexpressing E. coli) or native INOS (from immunostimulant-activated rat aortic smooth muscle cells). Activity was determined with 1-20 pmole of NOS using a kinetic 96-well microtiter plate assay based on the kinetics of NADPH consumption (NNOS and ENOS) or Fe^2+-myoglobin oxidation. Radioligand binding was performed after incubation of 1-2 pmole of NOS for 15 minutes at 23° C. with either Bolton-Hunter labelled [125I]-calmodulin (1 nM) or [3H]-N-nitro-L-arginine (200 pM) and the indicated peptides. Values are means ±SEM of triplicate determinations.

[2] = target: T1, native INOS (from immunostimulant-activated rat aortic smooth muscle cells) (Rattus norvegicus, UniProt Q06518); experiment: NOS activity, kinetic 96-well microtiter plate assay, Fe2+-myoglobin oxidation; type: biochemical; conditions: mean ± SEM, triplicate
T1 construct: endogenous in cells
Experimental: as §1

[3] = system: NOS; experiment: Radioligand binding of [3H]-N-nitro-L-arginine to NOS; parameters: scale not given here; conditions: ligand 200 pM, 15 minutes at 23° C., mean ± SEM
Experimental: as §1

[4] = target: T2, recombinant bovine ENOS (Bos taurus, UniProt P29473); experiment: NOS activity, kinetic 96-well microtiter plate assay, NADPH consumption; type: biochemical; conditions: mean ± SEM, triplicate
T2 construct: made in house; host or cells: E. coli
T2 sequence (P29473 1-1205): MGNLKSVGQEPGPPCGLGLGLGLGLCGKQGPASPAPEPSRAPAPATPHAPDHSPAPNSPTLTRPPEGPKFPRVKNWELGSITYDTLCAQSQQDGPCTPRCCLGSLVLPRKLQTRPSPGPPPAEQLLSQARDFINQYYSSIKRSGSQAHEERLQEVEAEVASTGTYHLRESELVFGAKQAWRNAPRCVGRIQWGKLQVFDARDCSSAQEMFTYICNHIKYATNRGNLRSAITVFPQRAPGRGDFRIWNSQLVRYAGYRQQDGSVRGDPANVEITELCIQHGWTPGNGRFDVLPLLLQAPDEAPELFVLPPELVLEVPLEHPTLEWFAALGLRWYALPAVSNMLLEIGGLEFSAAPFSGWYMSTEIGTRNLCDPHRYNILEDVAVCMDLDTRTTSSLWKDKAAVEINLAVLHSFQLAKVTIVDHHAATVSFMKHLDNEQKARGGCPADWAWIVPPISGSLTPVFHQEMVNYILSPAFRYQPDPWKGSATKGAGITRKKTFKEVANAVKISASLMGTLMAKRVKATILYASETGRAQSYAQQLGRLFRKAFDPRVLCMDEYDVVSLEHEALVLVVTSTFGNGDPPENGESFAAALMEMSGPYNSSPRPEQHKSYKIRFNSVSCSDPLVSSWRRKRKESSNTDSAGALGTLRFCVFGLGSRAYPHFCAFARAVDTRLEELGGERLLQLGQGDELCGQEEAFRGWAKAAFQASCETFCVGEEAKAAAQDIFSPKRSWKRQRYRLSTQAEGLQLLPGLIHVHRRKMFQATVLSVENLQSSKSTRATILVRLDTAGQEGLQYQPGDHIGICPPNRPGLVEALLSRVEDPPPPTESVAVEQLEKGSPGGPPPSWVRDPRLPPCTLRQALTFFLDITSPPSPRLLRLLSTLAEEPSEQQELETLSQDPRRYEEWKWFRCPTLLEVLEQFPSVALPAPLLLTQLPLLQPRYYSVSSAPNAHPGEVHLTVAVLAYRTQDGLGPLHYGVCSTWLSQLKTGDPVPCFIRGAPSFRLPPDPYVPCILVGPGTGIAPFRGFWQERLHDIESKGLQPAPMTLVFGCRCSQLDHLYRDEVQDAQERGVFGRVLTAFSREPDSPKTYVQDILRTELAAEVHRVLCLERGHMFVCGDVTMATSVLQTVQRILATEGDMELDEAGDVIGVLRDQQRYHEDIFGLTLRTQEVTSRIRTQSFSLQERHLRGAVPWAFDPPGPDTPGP
Experimental: as §1

[5] = target: T3, recombinant rat NNOS (Rattus norvegicus, UniProt P29476); experiment: as above; type: biochemical; conditions: mean ± SEM, triplicate
T3 construct: made in house; host or cells: HEK293 cells
T3 sequence (P29476 whole entry): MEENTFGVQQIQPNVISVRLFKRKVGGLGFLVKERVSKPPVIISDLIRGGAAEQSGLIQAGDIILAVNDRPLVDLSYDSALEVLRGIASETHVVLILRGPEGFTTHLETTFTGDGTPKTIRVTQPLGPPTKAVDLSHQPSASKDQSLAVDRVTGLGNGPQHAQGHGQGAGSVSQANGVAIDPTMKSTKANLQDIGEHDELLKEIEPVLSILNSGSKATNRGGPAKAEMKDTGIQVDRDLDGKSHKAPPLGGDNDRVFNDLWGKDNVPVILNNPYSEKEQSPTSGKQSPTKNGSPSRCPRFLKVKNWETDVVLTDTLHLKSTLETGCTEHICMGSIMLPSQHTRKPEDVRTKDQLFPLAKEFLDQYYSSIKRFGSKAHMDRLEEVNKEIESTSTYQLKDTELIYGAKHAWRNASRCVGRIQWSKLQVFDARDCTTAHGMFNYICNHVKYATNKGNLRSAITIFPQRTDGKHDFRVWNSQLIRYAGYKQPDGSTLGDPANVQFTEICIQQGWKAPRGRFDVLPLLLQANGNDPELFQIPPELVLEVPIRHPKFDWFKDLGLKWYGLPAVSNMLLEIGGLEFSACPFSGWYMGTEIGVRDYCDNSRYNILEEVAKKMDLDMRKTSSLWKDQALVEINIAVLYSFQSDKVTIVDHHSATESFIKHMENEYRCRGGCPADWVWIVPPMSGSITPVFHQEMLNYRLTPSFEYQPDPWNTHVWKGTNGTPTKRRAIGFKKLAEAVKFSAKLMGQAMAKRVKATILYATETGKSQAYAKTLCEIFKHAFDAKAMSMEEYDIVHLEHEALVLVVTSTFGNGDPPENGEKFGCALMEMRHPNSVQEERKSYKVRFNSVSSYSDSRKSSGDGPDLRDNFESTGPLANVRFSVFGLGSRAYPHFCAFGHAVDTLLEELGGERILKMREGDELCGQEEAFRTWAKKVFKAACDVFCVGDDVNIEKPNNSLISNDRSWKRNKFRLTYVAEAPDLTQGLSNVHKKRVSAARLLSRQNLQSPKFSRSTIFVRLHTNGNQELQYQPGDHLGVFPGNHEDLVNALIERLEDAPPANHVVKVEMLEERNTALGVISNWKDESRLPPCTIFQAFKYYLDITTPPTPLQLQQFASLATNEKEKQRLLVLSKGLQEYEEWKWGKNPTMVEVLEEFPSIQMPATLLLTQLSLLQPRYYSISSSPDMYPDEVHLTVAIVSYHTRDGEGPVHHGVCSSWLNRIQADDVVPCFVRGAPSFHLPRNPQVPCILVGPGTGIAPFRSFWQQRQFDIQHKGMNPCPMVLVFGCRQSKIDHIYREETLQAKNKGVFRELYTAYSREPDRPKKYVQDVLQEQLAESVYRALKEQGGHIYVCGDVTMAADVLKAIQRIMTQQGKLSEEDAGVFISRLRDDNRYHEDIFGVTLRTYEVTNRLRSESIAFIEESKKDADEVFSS
Experimental: as §1

[6] = target: NNOS (Rattus norvegicus, UniProt P29476); experiment: CAM binding: radiolabeled CAM trapped on a membrane by NNOS adhesion; conditions: no peptide: 774 ± 40
Chain of NNOS (P29476 whole entry): as above
Experimental: (§2) JX series polypeptides are approximately 30-mers derived from ENOS and NNOS inhibitory polypeptides. B058 series are shorter (6-mers to 15-mers) peptides derived from flanking loops or from shorter segments of inhibitory polypeptides. CAM binding data represents counts from radiolabeled CAM trapped on a membrane by NNOS adhesion. INOS activity was assayed by measuring oxidation of ferrous myoglobin by product NO.

[7] = target: INOS (Rattus norvegicus, UniProt Q06518); experiment: INOS activity by oxidation of ferrous myoglobin by product NO; type: biochemical; parameters: unit not given here; conditions: for INOS Activity 0.1 mg/ml: peptide 0.1 mg/ml, no peptide: 14.9 ± .56; for INOS activity 0.3 mg/ml: peptide 0.3 mg/ml, no peptide: 12.3 ± .19; for INOS Activity 1.0 mg/ml: peptide 1.0 mg/ml, no peptide: 13.0 ± .23
Experimental: as §2

Substance | Ligand binding to NOS [125I]-CAM ([1]; peptide 100 μg/ml) | NOS Activity (% of control) INOS ([2]; peptide 100 μg/ml) | Ligand binding to NOS [3H]-NHA ([3]; peptide 100 μg/ml) | NOS Activity (% of control) ENOS ([4]; peptide 100 μg/ml) | NOS Activity (% of control) NNOS ([5]; peptide 100 μg/ml) | NNOS CAM Binding [6] | INOS Activity 0.1 mg/ml [7] | INOS activity 0.3 mg/ml [7] | Ligand binding to NOS [125I]-CAM ([1]; peptide 300 μg/ml) | NOS Activity (% of control) INOS ([2]; peptide 300 μg/ml) | Ligand binding to NOS [3H]-NHA ([3]; peptide 300 μg/ml) | NOS Activity (% of control) ENOS ([4]; peptide 300 μg/ml) | NOS Activity (% of control) NNOS ([5]; peptide 300 μg/ml) | INOS Activity 1.0 mg/ml [7]
DDVVSLEHET [BO58-04, 24] |  |  |  |  |  | 903 ± 57 counts | 15.8 ± .73 | 14.9 ± .56 |  |  |  |  |  | 
AVDTRLEELGGERT [BO58-01, 35] |  |  |  |  |  | 986 ± 58 counts | 15.0 ± .73 |  |  |  |  |  |  | 
AVDTLLEELGGERT [BO58-02, 22] |  |  |  |  |  | 953 ± 80 counts | 15.1 ± .03 |  |  |  |  |  |  | 
WRRKRK [BO58-07, 12] | 6.7 ± 3.6 | 91.1 ± 5.7 % of control | 91.7 ± 5.1 | 24.0 ± 2.8 % of control | 11.0 ± 3.3 % of control | 1749 ± 40 counts | 13.6 ± .31 |  |  |  |  |  |  | 
DIDQKLSHLGASQT [BO58-03, 23] |  |  |  |  |  | 863 ± 19 counts | 14.4 ± .27 |  |  |  |  |  |  | 
KASTLEEEQ [BO58-06, 26] |  |  |  |  |  | 951 ± 100 counts | 15.3 ± .32 |  |  |  |  |  |  | 
DIVHLEHES [BO58-05, 25] |  |  |  |  |  | 952 ± 52 counts | 14.6 ± .03 |  |  |  |  |  |  | 

Next, values leading:

Ligand binding to NOS [125I]-CAM ([1]; peptide 100 μg/ml) | NOS Activity (% of control) INOS ([2]; peptide 100 μg/ml) | Ligand binding to NOS [3H]-NHA ([3]; peptide 100 μg/ml) | NOS Activity (% of control) ENOS ([4]; peptide 100 μg/ml) | NOS Activity (% of control) NNOS ([5]; peptide 100 μg/ml) | NNOS CAM Binding [6] | INOS Activity 0.1 mg/ml [7] | INOS activity 0.3 mg/ml [7] | Ligand binding to NOS [125I]-CAM ([1]; peptide 300 μg/ml) | NOS Activity (% of control) INOS ([2]; peptide 300 μg/ml) | Ligand binding to NOS [3H]-NHA ([3]; peptide 300 μg/ml) | NOS Activity (% of control) ENOS ([4]; peptide 300 μg/ml) | NOS Activity (% of control) NNOS ([5]; peptide 300 μg/ml) | INOS Activity 1.0 mg/ml [7] | Substance
24.7 ± 2.2 | 99.7 ± 5.7 % of control | 115.0 ± 8.6 | 80.5 ± 2.0 % of control | 54.5 ± 1.8 % of control | 1339 ± 49 counts | 14.6 ± .02 |  |  |  |  |  |  |  | RPEQHKSYKIRF [BO58-10, 17]
82.7 ± 1.1 | 101.1 ± 3.7 % of control | 118.9 ± 4.1 | 93.6 ± 2.3 % of control | 102.0 ± 2.1 % of control | 686 ± 43 counts | 14.7 ± .28 |  |  |  |  |  |  |  | QEERKSYKVRF [BO58-09, 16]
89.2 ± 6.2 | 99.7 ± 2.8 % of control | 119.2 ± 3.4 | 102.6 ± 4.1 % of control | 98.4 ± 1.9 % of control | 908 ± 56 counts | 14.7 ± .94 |  |  |  |  |  |  |  | SDSRKSSGDGPDLR [BO58-11, 18]
 |  |  |  |  | 674 ± 100 counts | 12.9 ± .32 | 7.9 ± .11 | 0.0 ± 4.8 | 64.3 ± 3.2 % of control | 122.4 ± 1.0 | 40.2 ± 4.0 % of control | 28.2 ± 0.9 % of control | 2.9 ± .32 | QHKSYKIRFNSVSCSDPLVSSWRRKRKE [JX3, 15]
 |  |  |  |  | 1356 ± 46 counts | 13.1 ± .11 | 7.7 ± .11 | 0.0 ± 7.4 | 62.2 ± 2.8 % of control | 116.3 ± 1.9 | 57.2 ± 7.5 % of control | 30.4 ± 1.7 % of control | 3.2 ± .11 | SSPRPEQHKSYKIRFNSVSCSDPLVSSWRRKRKESS [JX2, 14]
 |  |  |  |  | 659 ± 41 counts | 14.1 ± .57 | 10.4 ± .57 | 82.7 ± 1.1 | 84.1 ± 3.5 % of control | 95.7 ± 4.7 | 80.2 ± 3.8 % of control | 103.0 ± 1.3 % of control | 8.4 ± .57 | QEERKSYKVRFNSVSSYSDSQKSSGDGPDL [JX4, 19]
